Patent US20190112385A1 (NBE THERAPEUTICS, published 2019)
Residue numbers refer to the chain shown, from its start.

B1: parental anti-Mesothelin mouse mAb MN, produced as chimeric full-length IgG1 antibody with human constant regions (antibody, V domains shown)
VH: QVQLQQPGAELVKPGASMKLSCKASGYTFTSYWMHWVKQRPGQGLEWIGMIHPNSDNTIYYEKFKSKATLTVDKSSSTAYMQLSSLTSEDSAVYYCAIIITPVVPKFDYWGQGTTLTVSS
VL: DIVMTQSHQFMSTSVGDRVSVTCKASHDVGTSVAWYQQKPGQSPKLLIYWASTRHTGVPDRFTGSGSGTDFTLTISNVQSEDLADYFCQQYSSYPLTFGAGTKLELK
notes: also called VH-MN (parental mouse); parental chimeric antibody
B2: huMN3-1 (antibody, V domains shown)
VH: B1 VH with P7S, K38R, R40A, M50A, E62Q, K67R, A68V, S76I, S91T, L116V
VL: DIQMTQSPSFLSASVGDRVTITCRASHDVGTSLAWYQQKPGQAPKLLIYWASTLQTGVPSRFSGSGSGTEFTLTISSLQPEDFATYYCQQYSSYPLTFGPGTTVDMK
B3: huMN5-2 (antibody, V domains shown)
VH: QVQLQQSGAELVKPGASLKLSCKASGYTFTSYWMHWVRQAPGQGLEWIGAIHPNSDNTIYYQKFKSRFTITVDKSTSTAYMQLSSLTSEDTAVYYCAIIITPVVPKFDYWGQGTTVTVSS
VL: DIVMTQSSSFMSASVGDRVSITCKASHDVGTSLAWYQQKPGQSPKLLIYWASTRQTGVPDRFSGSGSGTDFTLTISSVQSEDVATYFCQQYSSYPLTFGQGTKLEIK
notes: No sheet says in words that huMN5a is huMN5-2
B4: huMN5-3 (antibody, V domains shown)
VH: B3 VH
VL: DIVMTQSPDSLAVSLGERATITCKSSHDVGTSLAWYQQKPGQPPKLLIYWASTRESGVPDRFSGSGSGTDFTLTISSLQAEDVAVYYCQQYSSYPLTFGQGTKLEIK
notes: No sheet says in words that huMN5b is huMN5-3

Tests used:
[1] = target: T1, StrepII-tagged Mesothelin (human mesothelin isoform 2, NP_037536, with C-terminal strepII-tag) (human, UniProt Q13421-1 296-606, limits assumed); test: SPR (Biacore T200), mAb captured by anti-human Fc-gamma IgG (ligand level 106.5 RU), Mesothelin-strep 10 to 1.25 nM as analyte, 25 °C, 1:1 model; Chi2 0.052 RU2
T1 construct: also called Mesothelin-strep; soluble antigen
T1 sequence (Q13421 other isoform, or with tags, fused parts or gaps limits assumed): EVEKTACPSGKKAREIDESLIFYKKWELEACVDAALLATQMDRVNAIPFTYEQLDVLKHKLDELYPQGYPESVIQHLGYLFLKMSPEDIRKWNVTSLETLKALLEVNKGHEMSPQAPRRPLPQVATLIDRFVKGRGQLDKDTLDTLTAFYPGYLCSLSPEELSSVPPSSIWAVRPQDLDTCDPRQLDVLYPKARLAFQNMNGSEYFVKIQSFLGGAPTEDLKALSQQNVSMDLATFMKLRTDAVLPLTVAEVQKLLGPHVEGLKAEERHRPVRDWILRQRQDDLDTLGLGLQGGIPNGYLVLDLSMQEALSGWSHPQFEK
Procedure: (§1) Table 1. Affinities of parental mouse mAb MN and humanized versions thereof. To evaluate the binding strength (affinity) of the generated humanized monoclonal antibodies (mAbs), and to compare affinites with parental mAbs, surface plasmon resonance (SPR) measurements were conducted, a biophysical method to accurately determine affinity. SPR was performed using a Biacore T200 instrument (GE Healthcare, Buckinghamshire, UK) and data was evaluated using Biacore Evaluation T200 V2.0 software. To capture mAbs, goat a-human Fc-gamma-specific IgG (Jackson ImmunoResearch, #109-005-098) was covalently immobilized on a CMS chip (GE Healthcare, # BR-1005-30).
(§2) Mesothelin-strep was diluted in running buffer using 2-fold serial dilutions ranging from 10 nM to 1.25 nM. Association was measured at a flow of 30 μl/min for 120 s, and dissociation was followed for 1000 s. All measurements were performed at 25° C. All curves were fitted using a 1:1 binding model with RI=0. Regeneration was done for 90 s using 100 mM H3PO4 at a flow of 30 μl/min.

[2] = target: T1, StrepII-tagged Mesothelin (human …); test: ELISA of 293T supernatant on coated Mesothelin, divided by the IgG titer from a sandwich ELISA
Procedure: (§3) Antigen-binding analysis by ELISA was performed by coating of Nunc-Immuno MaxiSorp 96-well plates (Thermo Scientific, Waltham, USA) with antigen diluted in coating buffer (100 mM bicarbonate/carbonate buffer) over night at 4° C. For sandwich ELISA, plates were coated with 2 μg/ml AffiniPure F(ab′)2 fragment donkey anti-human IgG (Jackson Immunoresearch, West Grove, USA) diluted in coating buffer over night at 4° C. After coating, plates were washed twice with PBS/0.05% Tween-20 (PBS-T), blocked with PBS-T containing 3% bovine serum albumin (BSA) (Carl Roth, Karlsruhe, Germany) for 1 hour at 37° C. and washed again 5 times with PBS/T. L11 clone supernatants were pre-diluted 3-fold, while supernatants from 293T cells were pre-diluted 50-fold. Parental mAbs diluted to 0.5 μg/ml were used to generate standard curves. 3.5-fold serial dilutions of samples were added and plates were incubated for 1 hour at 37° C. After 5 washes with PBS/T, HRPO-conjugated F(ab)2 anti-human FC-gamma (Jackson Immunoresearch, West Grove, USA) was added at 10′000-fold dilution in PBS/T containing 1% BSA, and plates were incubated for 1 hour at 37° C. Finally, plates were washed 5 times with PBS/T and 50 μl of Sigmafast OPD Peroxidase substrate (Sigma-Aldrich, St. Louis, USA) were added. Reactions were stopped by adding 50 μl of 2M H₂SO₄. Absorption was measured at 490 nm. OD50 values of standards with known concentrations and samples determined by 4-point curve fitting models were used to calculate EC50.
(§4) FIG. 10B Deconvolution and validation of recovered sequences. All possible combinations of VH/VL pairs per clone along with the parental pair as a control were transiently transfected into 293T cells. Cell clones and supernatants were analysed for antigen-binding and IgG titer by ELISA as described in FIG. 4D. Ratios of antigen-binding/IgG titers were determined to obtain antigen binding values normalized to IgG content in supernatants (Meso-binding/IgG). Normalized binding is also shown in relation to parental mAb (binding % of parental).

[3] = target: T1, StrepII-tagged Mesothelin (human …); test: SPR, Biacore T200, mAb captured by anti-human Fc, Mesothelin-strep as analyte
[4] = target: T1, StrepII-tagged Mesothelin (human …); test: SPR (Biacore T200), mAb from 293T supernatant captured by anti-human Fc-gamma IgG, Mesothelin-strep 10 to 1.25 nM as analyte, 25 °C, 1:1 model
Procedure: as §1
FIG. 10C Isoaffinity plot showing association (kₐ) and dissociation constants (kd) as determined by surface plasmon resonance (SPR). The same supernatants as described in (B) were used for the analysis. Diagonal lines represent equal affinities.

[5] = target: T1, StrepII-tagged Mesothelin (human …); test: ELISA of 293T supernatant on coated Mesothelin, normalized to IgG titer and given relative to parental mAb MN
Procedure: as §3, §4

[6] = target: T1, StrepII-tagged Mesothelin (human …); test: SPR (Biacore T200), mAb captured by anti-human Fc-gamma IgG (ligand level 90.0 RU), Mesothelin-strep 10 to 1.25 nM as analyte, 25 °C, 1:1 model; Chi2 0.075 RU2
Procedure: as §1, §2

[7] = target: T1, StrepII-tagged Mesothelin (human …); test: SPR (Biacore T200), mAb captured by anti-human Fc-gamma IgG (ligand level 217.8 RU), Mesothelin-strep 10 to 1.25 nM as analyte, 25 °C, 1:1 model; Chi2 0.151 RU2
Procedure: as §1, §2

[8] = target: T1, StrepII-tagged Mesothelin (human …); test: SPR (Biacore T200), mAb captured by anti-human Fc-gamma IgG (ligand level 143.6 RU), Mesothelin-strep 10 to 1.25 nM as analyte, 25 °C, 1:1 model; Chi2 0.100 RU2
Procedure: as §1, §2

Binder	Kd [1]	Meso-binding/IgG [2]	Kd [3]	koff [4]	kon [4]	binding (% of parental) [5]	Kd [6]	Kd [4]	Kd [7]	Kd [8]
B1	0.05 nM	0.94	0.051 nM	6.81e-05 s⁻¹	1.31e+06 M⁻¹ s⁻¹	100 % of parental				
B2		1.04		0.000274 s⁻¹	1.42e+06 M⁻¹ s⁻¹	111 % of parental	0.193 nM	0.193 nM		
B3		0.79		0.000218 s⁻¹	1.24e+06 M⁻¹ s⁻¹	84.9 % of parental		0.176 nM	0.176 nM	
B4		0.77		0.000115 s⁻¹	1.01e+06 M⁻¹ s⁻¹	82.4 % of parental		0.114 nM		0.114 nM
